What follows are substances tested against arhg7_human ARHGEF7 (UniProt Q14155).
UniProt Q14155, sequence (Q14155 whole entry): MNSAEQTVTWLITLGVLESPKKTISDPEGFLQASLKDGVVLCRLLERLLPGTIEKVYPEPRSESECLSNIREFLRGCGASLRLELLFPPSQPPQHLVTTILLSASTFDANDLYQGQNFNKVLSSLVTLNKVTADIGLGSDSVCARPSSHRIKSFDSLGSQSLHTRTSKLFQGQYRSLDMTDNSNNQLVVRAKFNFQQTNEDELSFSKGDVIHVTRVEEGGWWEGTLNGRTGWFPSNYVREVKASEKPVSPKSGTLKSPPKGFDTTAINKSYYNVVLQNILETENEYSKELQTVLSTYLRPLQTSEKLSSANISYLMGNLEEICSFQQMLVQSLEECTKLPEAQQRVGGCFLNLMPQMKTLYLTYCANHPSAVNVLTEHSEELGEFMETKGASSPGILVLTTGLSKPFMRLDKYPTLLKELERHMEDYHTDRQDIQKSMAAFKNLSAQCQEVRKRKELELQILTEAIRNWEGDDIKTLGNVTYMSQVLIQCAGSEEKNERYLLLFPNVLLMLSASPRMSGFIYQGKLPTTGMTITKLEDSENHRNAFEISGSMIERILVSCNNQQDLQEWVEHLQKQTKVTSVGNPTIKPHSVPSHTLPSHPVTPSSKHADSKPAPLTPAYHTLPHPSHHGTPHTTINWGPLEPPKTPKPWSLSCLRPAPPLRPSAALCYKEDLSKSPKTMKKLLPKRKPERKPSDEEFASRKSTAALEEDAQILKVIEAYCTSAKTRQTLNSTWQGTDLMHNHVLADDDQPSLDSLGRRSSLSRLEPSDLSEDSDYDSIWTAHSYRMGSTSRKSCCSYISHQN

Row | Substance | effect of a mutation on the interaction
1 | Leucine-rich repeat serine/threonine-protein kinase 2 (Homo sapiens), Q5S007 N1437S | decreasing interaction
2 | Leucine-rich repeat serine/threonine-protein kinase 2 (Homo sapiens), Q5S007 R1441C | decreasing interaction
3 | Leucine-rich repeat serine/threonine-protein kinase 2 (Homo sapiens), Q5S007 T1348N | decreasing interaction
